This passage reports dual-luciferase assay in tobacco leaves: PpANS promoter activity with PpMYB1 and PpbHLH1 co-expressed, against PpMYB1 alone results from PMC12292641.

The target in the assay is PpbHLH1 (Phalaenopsis pulcherrima).

PpMYB1 (natural protein) displayed a dual-luciferase assay in tobacco leaves: PpANS promoter activity with PpMYB1 and PpbHLH1 co-expressed, against PpMYB1 alone of 4.7 fold.
